Laboratory results taken from the supplement of paper PMC10724198.
± gives the standard deviation of the averaged measurements.

Test system: Saccharomyces cerevisiae
Experiment: protein stability index of tFT-peptide fusion (C-terminal peptide) (PSI (0-1 scale)); higher = more stable (slower turnover)
Details: genetic background: wild type; temperature: 30 C
Procedure: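 MPS profiling in S. cerevisiae of the yeast C-terminome library: the last 12 aa of each annotated ORF are fused to the C-terminus of a sfGFP-mCherry timer, after a GGGS linker. Cells are FACS-sorted into 8 mCherry/sfGFP bins and deep-sequenced. PSI runs from 0 (unstable) to 1 (stable); wild type and das1Δ backgrounds, two technical replicates each.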

Point of comparison: TPLLLGNKGKPQ [YBL094C C-terminal 12 aa], protein stability index 0.696 ± 0.043. Against it:
- SALNKIKADEKK [ACO1 C-terminal 12 aa] — within error, 0.684 ± 0.024
- SDEEPSSKKRKV [VPS75 C-terminal 12 aa] — within error, 0.678 ± 0.01
- SDQKGGRSVSTS [YLR001C C-terminal 12 aa] — within error, 0.734 ± 0.017
- SEGLQFLQREKK [MSE1 C-terminal 12 aa] — within error, 0.681 ± 0.011
- SEVKGYSKLNIV [ASI3 C-terminal 12 aa] — within error, 0.668 ± 0.035
- SFFIYVNFTVYF [YCR001W C-terminal 12 aa] — lower, 0.178 ± 0.033
- SFHKEFFDQYRD [ALT1 C-terminal 12 aa] — within error, 0.774 ± 0.048
- SFVKIQDAIKKT [MRPL9 C-terminal 12 aa] — lower, 0.627 ± 0.015
- SGETSDIIFRNY [ADK2 C-terminal 12 aa] — higher, 0.786 ± 0.012
- SGKRGVGKTDFR [NOG1 C-terminal 12 aa] — within error, 0.6901 ± 0.00098
- SGPVEELVSPSK [IRC8 C-terminal 12 aa] — within error, 0.685 ± 0.032
- SHEQKFENVQKE [STF2 C-terminal 12 aa] — within error, 0.705 ± 0.012
- SISVLFDSLAAL [PRS1 C-terminal 12 aa] — within error, 0.736 ± 0.022
- SKADSYRSVIRH [DLT1 C-terminal 12 aa] — within error, 0.675 ± 0.023
- SKFGSIFKKVFG [YGR237C C-terminal 12 aa] — within error, 0.775 ± 0.077
- SKKVICNTFGYN [DDI2 C-terminal 12 aa] — within error, 0.733 ± 0.1
- SKMLKNKIPLKN [YGL138C C-terminal 12 aa] — within error, 0.685 ± 0.039
- SKREFIESLRPK [SKG1 C-terminal 12 aa] — within error, 0.679 ± 0.03
- SLCKNTIISSSV [YAL063C-A C-terminal 12 aa] — within error, 0.703 ± 0.035
- SLDDFGVDVDME [PFA4 C-terminal 12 aa] — within error, 0.683 ± 0.016
- SLDQEIQSLLSK [GPX2 C-terminal 12 aa] — within error, 0.654 ± 0.028
- SLFPRDPKRLRP [DPS1 C-terminal 12 aa] — within error, 0.6987 ± 0.0031
- SLIKQVGVKLDR [JHD2 C-terminal 12 aa] — within error, 0.67 ± 0.013
- SLPLVSLFIVLA [YJL064W C-terminal 12 aa] — lower, 0.268 ± 0.0062
- SLYTLNYNVKNP [ATG17 C-terminal 12 aa] — within error, 0.6907 ± 0.00092
- SMHAFLCKIYKR [YCR095W-A C-terminal 12 aa] — within error, 0.6761 ± 0.0035
- SMPLYKDVQKDA [RBK1 C-terminal 12 aa] — within error, 0.665 ± 0.015
- SMTTTNFSDFSL [UPC2 C-terminal 12 aa] — within error, 0.688 ± 0.036
- SNDDFRKMFLGE [PRP24 C-terminal 12 aa] — within error, 0.708 ± 0.01
- SNSNQHFGNVTF [IME2 C-terminal 12 aa] — within error, 0.6829 ± 0.0059
- SPAHSFEKIQKI [ERF2 C-terminal 12 aa] — within error, 0.688 ± 0.029
- SPYDWFRNTETP [DER1 C-terminal 12 aa] — within error, 0.737 ± 0.0089
- SQVLPESERRLD [ATG22 C-terminal 12 aa] — within error, 0.676 ± 0.03
- SRIQNASASGEI [TIM13 C-terminal 12 aa] — within error, 0.715 ± 0.015
- SRSNSHRTFFKR [FPK1 C-terminal 12 aa] — within error, 0.714 ± 0.043
- SSLSFLSSFVDI [VAM10 C-terminal 12 aa] — within error, 0.702 ± 0.048
- SSSGTSSSHLEL [APL6 C-terminal 12 aa] — within error, 0.672 ± 0.028
- SSSLSLESFMKS [SNM1 C-terminal 12 aa] — within error, 0.725 ± 0.019
- SSTVESTNINME [MRT4 C-terminal 12 aa] — within error, 0.721 ± 0.00096
- SSVAFSKNLECV [YGR139W C-terminal 12 aa] — the same, 0.696 ± 0.038
- SSYFRIEGKKKK [CUE2 C-terminal 12 aa] — within error, 0.683 ± 0.024
- STSDFELDDLED [YPL264C C-terminal 12 aa] — within error, 0.729 ± 0.026
- STTKQQSQEAVA [YHL026C C-terminal 12 aa] — within error, 0.689 ± 0.054
- SVEEAFQLKSFD [LAA1 C-terminal 12 aa] — within error, 0.715 ± 0.056
- SVFCRNYPSFLL [YMR086C-A C-terminal 12 aa] — within error, 0.7 ± 0.035
- SVLQRRQSTQNS [HAL1 C-terminal 12 aa] — within error, 0.691 ± 0.06
- SVSVQVKWLYSA [YER107W-A C-terminal 12 aa] — lower, 0.159 ± 0.017
- SVTSGSANFVFY [UTH1 C-terminal 12 aa] — within error, 0.7 ± 0.019
- SYKWLKRETSPL [FRA1 C-terminal 12 aa] — within error, 0.689 ± 0.022
- TAIVAVVALLLL [DAN4 C-terminal 12 aa] — lower, 0.353 ± 0.0092
- TAPLIQRKNKKN [RPN8 C-terminal 12 aa] — lower, 0.355 ± 0.022
- TASGEDSHLLKQ [BRL1 C-terminal 12 aa] — within error, 0.689 ± 0.026
- TCISVFLEVHQV [YDL206W C-terminal 12 aa] — lower, 0.4633 ± 0.0046
- TDIENRNFRYIY [THI73 C-terminal 12 aa] — within error, 0.702 ± 0.022
- TDIEPSAKRQKK [RPF2 C-terminal 12 aa] — within error, 0.695 ± 0.087
- TDNGSVLPLNPS [BAS1 C-terminal 12 aa] — within error, 0.697 ± 0.028
- TDTEAEDDESPE [SEC63 C-terminal 12 aa] — lower, 0.633 ± 0.013
- TDYTRIIKMQSS [SWD1 C-terminal 12 aa] — lower, 0.251 ± 0.0049
- TFCRLCSHIQYF [YAL059C-A C-terminal 12 aa] — within error, 0.694 ± 0.022
- TFKGLYAEANSI [YOR111W C-terminal 12 aa] — within error, 0.716 ± 0.031
- TFKPIYLWALDL [SPP382 C-terminal 12 aa] — within error, 0.6753 ± 0.0057
- TGLLRGSQKTQD [RPL2A C-terminal 12 aa] — within error, 0.672 ± 0.0086
- TISPYIRVCVST [YPR099C C-terminal 12 aa] — lower, 0.424 ± 0.018
- TKCEEEIKNLSK [YME2 C-terminal 12 aa] — within error, 0.711 ± 0.036
- TKGGNAGTKAYN [RTC3 C-terminal 12 aa] — within error, 0.666 ± 0.041
- TKWWLHYYRKLR [SBE2 C-terminal 12 aa] — within error, 0.701 ± 0.023
- TLSMYPRRRFYH [GPG1 C-terminal 12 aa] — lower, 0.608 ± 0.043
- TPEDADEEEDDE [RPL22B C-terminal 12 aa] — within error, 0.655 ± 0.014
- TQEKLDSLLLMQ [LGE1 C-terminal 12 aa] — within error, 0.6982 ± 0.006
- TREPISYKLDIQ [ERO1 C-terminal 12 aa] — within error, 0.67 ± 0.024
- TRKWANAAKGMP [YLR407W C-terminal 12 aa] — within error, 0.727 ± 0.012
- TRMNVSHYYIIT [YOL166C C-terminal 12 aa] — within error, 0.641 ± 0.019
- TRRVAARKGKLS [UTR5 C-terminal 12 aa] — lower, 0.32 ± 0.014
- TSAFNKLHIVEE [YAK1 C-terminal 12 aa] — within error, 0.67 ± 0.045
- TSDHLFVVFFFW [YDL034W C-terminal 12 aa] — lower, 0.319 ± 0.035
- TSHEAVAAKKLI [SHC1 C-terminal 12 aa] — lower, 0.249 ± 0.011
- TSILEDVDGDDE [YOL050C C-terminal 12 aa] — within error, 0.669 ± 0.026
- TSPRNICTSLCV [SAL1 C-terminal 12 aa] — within error, 0.655 ± 0.038
- TTDEEVKEKKKR [GLE2 C-terminal 12 aa] — within error, 0.692 ± 0.028
- TTNANVNNSSLS [FKH1 C-terminal 12 aa] — within error, 0.6623 ± 0.0022
- TVLKAAKKEGLN [MGR3 C-terminal 12 aa] — within error, 0.671 ± 0.044
